Test [1] has as its system NF-κB(p65). Put plainly: Confocal immunofluorescence of p65 localization in Caco-2 cells. The format is cell-based, human. To be noted: 30 min. On the procedure:
For antibody labeling in cells, Caco-2 cells, were grown to 40-50% confluence in four-chambered slides (Millipore). At the end of the treatment, the cells were fixed with 3.7% formaldehyde in PBS for 20 min and permeabilized and blocked with PBS containing 0.3% Triton X-100 and 3% BSA (Sigma-Aldrich) for 1 h at room temperature and then incubated with respective antibodies overnight at 4° C. Following antibody incubation, the cells were washed with PBS (3 cycles, 5 min) and incubated with FITC or Alexa Fluor 555-conjugated secondary antibody for 2 h at room temperature. The nuclei were stained with DAPI (500 ng/ml; Cell signaling) and slides were mounted in ProLong antifade reagent (Cell Signaling).
All images were acquired using a Nikon A1R MP Multiphoton (Nikon) Confocal fluorescence microscope using a 60× oil immersion objective equipped with the Nikon Elements software (Nikon) at the Purdue Bioscience Imaging Facility. The X-Z and Y-Z cross-sections were produced by orthogonal reconstructions from z-stack scanning at 0.15 μm intervals taken with 60× objective in 5 μm thick paraffin embedded tissue section. Three-dimensional reconstructions were performed using Nikon elements software (Nikon).

Test [2] concerns NF-κB(p65). The test is described as follows: Immunoblot of NF-κB activation in Caco-2 cytoplasmic and nuclear extracts. The class given is cell-based, human. To be noted: LAP 1000 ng/mL or TNF-α 10 ng/mL. On the procedure: To extract the proteins from Caco-2 cells, cells were seeded in 6-well plates for 14-21 days. Following treatment, the cells were washed, scraped from the bottom of 6-well plates, suspended in PBS, and pelleted by centrifugation. Total protein from Caco-2 cells was extracted using the M-PER Extraction Kit (Thermo Fisher Scientific). Detergent-insoluble (membrane) and detergent-soluble (cytosolic) proteins were isolated using a Mem-Per Eukaryotic Protein Extraction Kit (Thermo Fisher Scientific) while the cytosolic and nuclear proteins were extracted using NE-PER Extraction Reagent (Thermo Fisher Scientific). To extract proteins from ileal epithelial cells, the epithelial cell fraction from ileal tissues were isolated as described above and the detergent-insoluble and the detergent-soluble proteins were isolated using a Mem-Per Eukaryotic Protein Extraction Kit.
To extract total protein from intact bacterial cells, sample solvent buffer and sonication (3 cycles of […]) were used. To isolate the cell wall-associated proteins bacterial pellets were resuspended in 0.5 ml protein extraction buffer (0.5% SDS, 10 mM Tris at pH 6.9), and incubated at 37° C. for 30 min with agitation. The samples were centrifuged (14,000×g, 10 min, 4° C.), and the supernatants (containing cell wall-associated proteins) were retained. Halt proteases and phosphatase inhibitors (Thermo Fisher Scientific) were used during all of the protein extraction procedures. The protein concentrations were determined by BCA assay (Thermo Fisher Scientific), and separated on SDS-PAGE gels (10-12.5% polyacrylamide) and electro-transferred to polyvinylidene difluoride (PVDF) membrane (Millipore). The membranes were then blocked in 5% nonfat dry milk (NFDM) in 0.1 M Tris-buffered saline, pH 7.5 (TBS) containing 0.1% Tween 20 (TBST) for at least 1 h. All of the primary antibodies were diluted in 5% bovine serum albumin (BSA) or 5% NFDM in TBST and incubated overnight. Secondary antibodies (1:2000 in 5% NFDM in TBST) incubated for 1 h at 37° C., and a chemiluminescence method was performed using LumiGLO reagent (Cell Signaling). The membranes were exposed to X-ray films or visualized using the Chemi-Doc XRS system (Bio-Rad). To immunoprobe the same membrane with another antibody, the originally bound antibodies from the membranes were removed by incubating the membranes in Restore Western Blot Stripping Buffer (Thermo Fisher Scientific) according to the manufacturer's protocol. To compare the reaction intensities, the average band densities were determined using Quantity One software (Bio-Rad). Densitometry reports represent the mean±SEM after normalization to the loading control and is presented as % change of protein with the average for untreated cells (control) set at 100%. Immunoblots and densitometric reports are representative of 2-3 independent experiments.

Test [3] concerns NF-κB. The test is described as follows: NF-κB luciferase reporter assay in RAW 264.7 cells. The class given is cell-based, murine. Conditions: for NF-κB activation by LAP domains (luciferase activity): 1 μg/mL each, 6 h; for NF-κB activation: purified proteins, LPS positive control. As for the experimental part: The NF-κB Luciferase reporter RAW 264.7 cell line (Novus Biologicals), which expresses an optimized Renilla luciferase reporter gene (RenSP) under the transcriptional control of an NF-κB response element, was used. The cells were seeded (1×10^5 cells/well) into 96-well luminometer-compatible plates for 16 h and then treated with analytes for 6 h. Media from each well were aspirated, and then 100 μL of ice-cold PBS was added to each well. The plates were then frozen solid at −80° C. overnight to completely lyse the cells, thawed back to room temperature, and luciferase assays were performed using the LightSwitch Luciferase assay kit (Novus Biologicals). Luminescence was measured as the relative luminescence units (RLU) using Spectramax (Spectramax, Molecular Devices) and reported as the relative fold change compared with that of the control cells that were treated with media alone. Recombinant human or mouse TNF-α (R&D Systems) and polymyxin B, LPS (E. coli Serotype R515, Re, TLR grade), and proteinase K (each from Sigma-Aldrich) were used.

Data on 7 molecules can be found in US10632208B2, “Peptide-mediated drug delivery across epithelial barrier” (Purdue Research Foundation, priority 2017, dated 2020).

In the case of TNF-α [reference compound], in test [1] (Caco-2 cells, LAP 1 μg/mL or TNF-α 10 ng/mL), the “localization of p65” value is recorded as “in the nucleus”. Moreover, in test [1] (Hsp60 knocked-down Caco-2 cells), the “localization of p65” value is on record as “slight reduction in the nuclear translocation of p65”. In test [2], the “time of appearance of cytoplasmic phospho-IκBα (Ser32)” value is recorded as 15 min; the “time of increase in nuclear p65 and P-p65” value was found to be 30 min.

B1: N1: LAP fragment N1 (Met1-Pro223); histidine-tagged form SEQ ID NO: 7 (protein)
chain: MAIKENAAQEVLEVQKVIDRLADNGQKALKAFESYNQEQVDNIVHAMALAGLDQHMPLAKLAVEETGRGLYEDKCIKNIFATEYIWNNIKNNKTVGVINEDVQTGVIEIAEPVGVVAGVTPVTNPTSTTLFKAIIAIKTRNPIIFAFHPSAQRCSSAAAKVVYDAAIAAGAPEHCIQWVEKPSLEATKQLMNHDKVALVLATGGAGMVKSAYSTGKPALGVGP
modifications: Listeria Adhesion Protein N1 domain
With B1, the “NF-κB activation by LAP domains (luciferase activity)” value (shortened to “NF-κB activation by LAP domains”) in test [3] is given as “activity similar to the untreated control cells”.

B2: C1: LAP fragment C1 (Gly412-Val648); histidine-tagged form SEQ ID NO: 8 (protein)
chain: GGIGDIYNGFIPSLTLGCGSYGKNSVSQNVSATNLLNVKRIADRRNNMQWFKLPPKIFFEKYSTQYLQKMEGVERVFIVTDPGMGSFKYVDVVIEHLKKRGNDVAYQVFADVEPDPSDVTVYKGAELMKDFKPDTIIALGGGSAMDAAKGMWLFYEHPEASFFGLKQKFLDIRKRTFKYPKLGGKAKFVAIPTTSGTGSEVTPFAVITDKENNIKYPLADYELTPDVAIVDAQYVTTV
modifications: Listeria Adhesion Protein C1 domain
For the molecule B2, the “NF-κB activation by LAP domains” value in test [3] is “activity similar to the untreated control cells”.

B3: InlA: purified recombinant InlA, Listeria surface protein Internalin A (protein)
chain: ATITQDTPINQIFTDTALAEKMKTVLGKTNVTDTVSQTDLDQVTTLQADRLGIKSIDGVEYLNNLTQINFSNNQLTDITPLKNLTKLVDILMNNNQIADITPLANLTNLTGLTLFNNQITDIDPLKNLTNLNRLELSSNTISDISALSGLTSLQQLSFGNQVTDLKPLANLTTLERLDISSNKVSDISVLAKLTNLESLIATNNQISDITPLGILTNLDELSLNGNQLKDIGTLASLTNLTDLDLANNQISNLAPLSGLTKLTELKLGANQISNISPLAGLTALTNLELNENQLEDISPISNLKNLTYLTLYFNNISDISPVSSLTKLQRLFFYNNKVSDVSSLANLTNINWLSAGHNQISDLTPLANLTRITQLGLNDQAWTNAPVNYKANVSIPNTVKNVTGALIAPATISDGGSYTEPDITWNLPSYTNEVSYTFSQPVTIGKGTTTFSGTVTQPLKAIFNVKFHVDGKETTKEVEAGNLLTEPAKPVKEGHTFVGWFDAQTGGTKWNFSTDKMPTNDINLYAQFSINSYTATFDNDGVTTSQTVDYQGLLQEPTAPTKEGYTFKGWYDAKTGGDKWDFATSKMPAKNITLYAQYSANSYTATFDVDGKSTTQAVDYQGLLKEPKAPTKAGYTFKGWYDEKTDGKKWDFATDKMPANDITLYAQFTKNPVAPPTTGGNTPPTTNNGGNTTPPSANIPGSDTSNTSTGNSASTTSTMNAYDPYNSKEASLPTT
For B3, the NF-κB activation entry in test [3] is “neutral”.

B4: N2: LAP fragment N2 (Gly224-Gly411); histidine-tagged form SEQ ID NO: 3 (protein)
chain: GNVPAYIDKTAKIKRSVNDIILSKSFDQGMICASEQAVIVDKEVAKEVKAEMEANKCYFVKGAEFKKLESYVINPEKGTLNPDVVGKSPAWIANQAGFKVPEDTKILVAEIKGVGDKYPLSHEKLSPVLAFIEAANQAEAFDRCEEMLVYGGLGHSAVIHSTDKEVQKAFGIRMKACRIIVNAPSAQG
modifications: Listeria Adhesion Protein N2 domain
For the molecule B4, in test [3], the “NF-κB activation by LAP domains” value is given as “activated NF-κB nearly as effectively as the full-length LAP”.

B5: C2: LAP fragment C2 (Pro649-Val866); histidine-tagged form SEQ ID NO: 9 (protein)
chain: PAHITADTGMDVLTHAIESYVSVMASDYTRGLSIRAIELVFENLRESVLTGDPDAREKMHNASALAGMAFANAFLGINHSLAHKIGPEFHIPHGRANAILMPHVIRYNALKPKKHALFPRYESFRADEDYARISRIIGFPAATTEEGVKSLVDEIIKLGKDVGIDMSLKGQNVAKKDLDAVVDTLADRAFMDQCTTANPKQPLVSELKEIYLEAYKGV
modifications: Listeria Adhesion Protein C2 domain
Consider B5, for which, in test [3], the “NF-κB activation by LAP domains” value is listed as “activity similar to the untreated control cells”.

B6: InlB: purified recombinant InlB protein of Listeria (protein, UniProt P0DQD2 31-630, looked up)
Internalin B: AKVQAETITVPTPIKQIFSDDAFAETIKDNLKKKSVTDAVTQNELNSIDQIIANNSDIKSVQGIQYLPNVTKLFLNGNKLTDIKPLANLKNLGWLFLDENKVKDLSSLKDLKKLKSLSLEHNGISDINGLVHLPQLESLYLGNNKITDITVLSRLTKLDTLSLEDNQISDIVPLAGLTKLQNLYLSKNHISDLRALAGLKNLDVLELFSQECLNKPINHQSNLVVPNTVKNTDGSLVTPEIISDDGDYEKPNVKWHLPEFTNEVSFIFYQPVTIGKAKARFHGRVTQPLKEVYTVSYDVDGTVIKTKVEAGTRITAPKPPTKQGYVFKGWYTEKNGGHEWNFNTDYMSGNDFTLYAVFKAETTEKAVNLTRYVKYIRGNAGIYKLPREDNSLKQGTLASHRCKALTVDREARNGGKLWYRLKNIGWTKAENLSLDRYDKMEYDKGVTAYARVRNASGNSVWTKPYNTAGAKHVNKLSVYQGKNMRILREAKTPITTWYQFSIGGKVIGWVDTRALNTFYKQSMEKPTRLTRYVSANKAGESYYKVPVADNPVKRGTLAKYKNQKLIVDCQATIEGQLWYRIRTSSTFIGWTKAANLRAQK
Take B6: in test [3], the “NF-κB activation ability after polymyxin-B treatment” value was “retained the NF-κB activation ability”, the “NF-κB activation after proteinase-K treatment” value was “abolished” and the NF-κB activation entry is on record as “activated NF-κB”. The “NF-κB activation ability after heat treatment” value in test [3] (100° C., 10 min) is recorded as “abolished the NF-κB activation ability”.
